Laboratory results: publication PMC13630248 (PLOS Biology, 2026)

Assays:
[1] = molecular target: RpYN06 Spike, full-length, on the cell surface (Betacoronavirus sp. RpYN06, strain …, strain); assay: flow cytometry on cells; settings: one partner purified
[2] = molecular target: T1, SARS-CoV-2 RBD (recombinant receptor binding domain of Spike) (SARS-CoV-2, UniProt P0DTC2); assay: SPR; settings: both partners purified
[3] = molecular target: T1, SARS-CoV-2 RBD (recombinant receptor …); assay: ELISA; settings: both partners purified

Binder	binding result [1]	binding result [2]	binding result [3]
VA14_26 IgG (antibody, V domains shown, copies: 2 + 2) VH: QVQLQQWGAGLLKPSDTLSLTCGISGGPFSGYYWSWIRQPPGKGLEWLGEINHSGITTYNPSLKSRGTISVDTSKRQISLKLASVTAADTAVYYCARFAYGDYGWDYSSDMDVWGKGTTVTVSS VL: DIQLTQSPSTLSASVGDRVTITCRASQSISTWLAWHQQIPGKAPKLLIYRASTLQSGVPSRFSGSGSGTEFTLTISSLQPDDFATYYCQQYYSVRTFGQGTKVDIK	binds	binds	–
V1WT_41 IgG (antibody, V domains shown, copies: 2 + 2) VH: QVQLQESGPGLVKPSETVSVTCTVSGGSITRSNYYWGWIRQPPGKGLEWIGSIFYNGNTNYNPSLKSRLTISVDTSKNQFSLKLSSVTAADTAVYYCARTAPYYYDRSGYYQKEEYFQRWGQGTLVTVSS VL: EIVMTQSPSTLSASVGDRVTITCRASQSISTWLAWYQQKPGKAPNLLIYQASSLESGVPSRFSGSGSGTEFTLTISSLQPDDFATYYCQQYNNYPRTFGQGTKLEIK	binds	–	binds
V1WT_06 IgG (antibody, V domains shown, copies: 2 + 2) VH: EVQLVQSGAEVKKPGASVKVSCKASGYTFSSHGISWVRQAPGQGLEWMGWISTYNGNTNSAQNLQGRVTMTADTSTSTAYMELRSLRSDDTAVYYCARGPWGYCSGTSCYYWTPDNPAYSYHGMDVWGQGTTVTVSS VL: not shown	binds	–	–
V1WT_06 Fab (Fab, V domains shown) VH: EVQLVQSGAEVKKPGASVKVSCKASGYTFSSHGISWVRQAPGQGLEWMGWISTYNGNTNSAQNLQGRVTMTADTSTSTAYMELRSLRSDDTAVYYCARGPWGYCSGTSCYYWTPDNPAYSYHGMDVWGQGTTVTVSS VL: not shown	–	–	binds
